Nine substances from paper PMC7535908, “Dipeptidyl peptidase 3 modulates the renin–angiotensin system in mice” (The Journal of Biological Chemistry, 2020) can be followed below.

The target of assay [1] is T1, purified recombinant human DPP3 (hDPP3) (Homo sapiens, UniProt Q9NY33).
T1 construct: made in house
T1 sequence (Q9NY33 1-737): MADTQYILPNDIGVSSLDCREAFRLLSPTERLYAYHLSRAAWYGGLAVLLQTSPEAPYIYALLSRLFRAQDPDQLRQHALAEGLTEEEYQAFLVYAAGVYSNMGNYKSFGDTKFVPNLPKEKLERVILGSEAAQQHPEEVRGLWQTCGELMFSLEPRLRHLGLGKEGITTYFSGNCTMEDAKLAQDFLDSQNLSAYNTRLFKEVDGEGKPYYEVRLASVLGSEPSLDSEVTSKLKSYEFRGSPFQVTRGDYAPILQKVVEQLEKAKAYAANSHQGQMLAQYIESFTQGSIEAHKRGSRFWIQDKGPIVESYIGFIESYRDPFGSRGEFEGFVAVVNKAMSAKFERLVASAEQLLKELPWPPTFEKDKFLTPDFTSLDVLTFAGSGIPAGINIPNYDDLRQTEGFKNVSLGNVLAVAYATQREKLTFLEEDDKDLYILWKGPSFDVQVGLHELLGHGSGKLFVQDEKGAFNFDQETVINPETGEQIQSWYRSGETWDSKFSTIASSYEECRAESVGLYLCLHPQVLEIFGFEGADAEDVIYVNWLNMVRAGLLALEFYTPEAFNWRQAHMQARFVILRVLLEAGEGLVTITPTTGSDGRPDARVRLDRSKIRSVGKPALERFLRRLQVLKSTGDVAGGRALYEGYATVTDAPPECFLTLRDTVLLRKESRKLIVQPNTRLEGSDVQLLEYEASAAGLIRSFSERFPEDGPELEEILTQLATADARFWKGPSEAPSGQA
Nature of the assay: Single-injection ITC enzyme kinetics of angiotensin peptide hydrolysis by hDPP3. The class given is biochemical. The conditions noted are these: for Substrate behaviour with DPP3 (heat signal, result in words): 5 µl of 2 mM peptide into 20 μM hDPP3, pH 8.0, 25 °C, no curve fitting possible for slow or poor substrates; for ΔH (enthalpy of interaction, heat of reaction) / kcat (maximum turnover number) / Km: 5 µl of 2 mM peptide into 200 µl of 20 μM hDPP3, 50 mM Tris-HCl pH 8.0, 100 mM NaCl, 25 °C, means ± S.D., three or more technical replicates from two biological replicates; for kcat (maximum turnover number) / Km: Michaelis–Menten fit, SD; for Km: read-out: Km (Michaelis–Menten constant). The text has this:
Thus, we investigated the activity of DPP3 against different angiotensin peptides. Kinetic parameters of angiotensin peptides were obtained by single-injection calorimetry measurements that are based on the exothermal hydrolysis of peptide bonds by purified recombinant human DPP3, which shares 93% sequence identity with the mouse DPP3. […] The graphs show the rate of angiotensin conversion as a function of its concentration. The insets depict the raw data of heat change caused by the conversion of substrate peptides.
Figure 9. […] The reaction was started by injecting 5 µl of 2 mM angiotensin peptides to the calorimetric cell containing 20 μM hDPP3. The data represent three or more technical replicates from two biological replicates.
Calorimetric activity of six different angiotensin peptides as purported substrates of DPP3 were further assayed using a MicroCal PEAQ-ITC (Malvern Panalytical Ltd., Malvern, UK). […] For this, the single-injection method was used, in which 5 µl of 2 mM angiotensin peptide was titrated into 200 µl of 20 μM purified hDPP3. The purification of recombinant hDPP3 was done as described in Ref. [35]. Both the ligand and the purified protein were prepared in 50 mM Tris-HCl at pH 8.0 containing 100 mM NaCl. The experiments consisted of a single injection of the ligand continuously over a period of 10 s, including an initial delay of 180 s before the injection and a spacing of 300 s after the injection. The experiments were performed at 25 °C with a stirring speed of 500 rpm. The thermodynamic characterization of this binding interaction was obtained using MicroCal PEAQ-ITC analysis software.

Assay [2] deals with T2, purified recombinant human DPP3 (dipeptidyl peptidase 3) (human) (UniProt Q9NY33).
T2 sequence: T1 sequence (Q9NY33 1-737)

With “Ang I: angiotensin peptide (1–10), commercially purchased (Bachem), tested as purported substrate of DPP3 (DRVYIHPFHL)”, in assay [1], the “Substrate behaviour with DPP3 (heat signal, result in words)” value (from here on “Substrate behaviour with DPP3”) was “poor substrate”.

As for “Ang III: angiotensin peptide (2–8), commercially purchased (Bachem)”, in assay [1], the “Substrate behaviour with DPP3” value is “both endothermic and exothermic behavior”.

Consider “Ang IV: angiotensin peptide (3–8), commercially purchased (Bachem)”, for which the “Substrate behaviour with DPP3” value in assay [1] is “both endothermic and exothermic behavior”.

One may read the Km as the concentration of substrate that gives half-maximal velocity. Turning to “Ang(1–5): angiotensin peptide (1–5), commercially purchased (Bachem) (DRVYI)”, in assay [1], the “Substrate behaviour with DPP3” value is recorded as ““good” substrates”; the “ΔH (enthalpy of interaction, heat of reaction)” value is -1.84 ± -0.04 kcal/mol; the “kcat (maximum turnover number)” value came to 0.35 ± 0.002 s⁻¹; the Km is 12.5 ± 2.2 µM.

With “Ang(1–7): angiotensin peptide (1–7), commercially purchased (Bachem), main metabolite of the alternate RAS”, in assay [1], the “Substrate behaviour with DPP3” value is given as ““good” substrates”; the “ΔH (enthalpy of interaction, heat of reaction)” value was -1.52 ± -0.10 kcal/mol; the “kcat (maximum turnover number)” value turned out to be 0.14 ± 0.003 s⁻¹; the Km was determined as 1.95 ± 0.2 µM.

Take “angiotensin (1–5), Ang(1–5) (from UniProt P01019 25-29) (peptide)”: in assay [2], the Km, single-injection ITC enzyme kinetics (hydrolysis of the peptide by hDPP3) came to 12.5 µM; the kcat, single-injection ITC enzyme kinetics (hydrolysis of the peptide by hDPP3) came to 0.35 s⁻¹; the ΔH (enthalpy of interaction, also called heat of reaction), single-injection ITC was -1.84 kcal/mol.

As for “angiotensin (1–7), Ang(1–7) (from UniProt P01019 25-31) (peptide)”, in assay [2], the Km, single-injection ITC enzyme kinetics (hydrolysis of the peptide by hDPP3) was found to be 1.95 µM; the kcat, single-injection ITC enzyme kinetics (hydrolysis of the peptide by hDPP3) stood at 0.14 s⁻¹; the ΔH (enthalpy of interaction, also called heat of reaction), single-injection ITC was -1.52 kcal/mol.

For the substance “angiotensin II, Ang II (1–8) (from UniProt P01019 25-32) (peptide)”, in assay [2], the Km, single-injection ITC enzyme kinetics (hydrolysis of the peptide by hDPP3) stood at 8.4 µM and the kcat, single-injection ITC enzyme kinetics (hydrolysis of the peptide by hDPP3) amounted to 0.25 s⁻¹.

Take tynorphin: in assay [1], the “Substrate behaviour with DPP3” value is listed as ““slow” substrates”.
